Source: patent publication US12723255B2, “Herbicide tolerance genes and methods of use thereof” (priority 2014, dated 2026)
Where two headings read alike, the source gives them in different places.

What was measured:
[1] = type: biochemical; conditions: substrate quizalofop-P
Description: To analyze these engineered proteins for activity in higher temperatures, the in vitro enzyme assay in Example 1 was modified to specify pre-heating all of the assay components to the desired temperature for 5 minutes before combining the components and then maintaining the reaction at the desired temperature for the duration of the reaction. To normalize the assay measurements, quizalofop-P was used as the substrate for the reaction and enzyme activity was normalized based on the 25° C. readings. Using these parameters, the temperature at which the enzyme activity was half of maximum (T1/2) was calculated. The T1/2 for MON-HT55 was calculated to be 29° C., and the T1/2 for wild-type RdpA was calculated to be 38° C. (FIG. 2A).
Enzyme activity over a range of temperatures was analyzed in-depth for MON-HT1, MON-HT2, MON-HT7, and MON-HT8. These assays were conducted as described above. Quizalofop-P or 2,4-D was used as the substrate for these reactions and activity was normalized based on the activity of the wild-type enzyme at 25° C. The activity curves obtained are presented in FIG. 2B (with quizalofop-P as the substrate) and FIG. 2C (with 2,4-D as the substrate). Using quizalofop-P as the substrate, MON-HT55 was the most temperature sensitive, with a T1/2 of 29° C. […] MON-HTI was slightly less temperature sensitive, with a T1/2 about 1° C. higher than the wild-type enzyme.

[2] = kinetic analysis, non-endpoint assay at 23° C.; type: biochemical
Text: For the fifth screen, recombinant protein for each of the eleven engineered proteins was produced and purified for an in-depth biochemical analysis. This biochemical analysis included: (1) kinetic analysis (Vmax and Km), (2) activity assays over a range of temperatures, (3) protein melting analysis, (4) activity on additional AOPP herbicides substrates, and (5) mass spectrometry analysis on peptides to confirm identity. The biochemical analyses were also done with purified recombinant wild-type protein and MON-HT55 protein for comparison. For the kinetic analysis, a non-endpoint assay was conducted at 23° C. with either quizalofop-P or 2,4-D as substrate. The recombinant proteins for these assays were produced in bacteria and purified using a 6-His tag fused at the C-terminal end of the protein. Results of the kinetic analysis with either quizalofop-P or 2,4-D as substrate are presented for ten of the engineered proteins, wild-type protein, and MON-HT55 protein in Table 7 (standard error is shown in parenthetical). Vmax is expressed as specific activity, umol herbicide product mg enzyme-1 min-1; Km expressed as mM herbicide substrate. […] The differentiation of the protein kinetics for MON-HTI and MON-HT7 were surprising because there are only four amino acid differences between MON-HT1 and MON-HT7. Specifically, MON-HT1 has the following amino acids at the indicated position: 182; F105; T112; and V273, and MON-HT7 has the following amino acids at the indicated position: L82; V105; S112; and A273.
Kinetic analysis using a non-endpoint assay was conducted at 23° C. with either quizalofop-P or 2,4-D as substrate, as detailed above for purified protein of the wild-type enzyme, MON-HT1, MON-HT13, MON-HT15, and MON-HT17.

[3] = type: physicochemical
Description: A protein melting analysis was also conducted. For the protein melting determinations, purified enzyme was added to 96-well microtiter plates in standard storage buffer (30 mM Tris pH7.5, 150 mM NaCl) with or without 50 uM Fe2+ and 1.0 mM aKG. Protein unfolding was then detected with SYPRO® orange protein gel stain (Invitrogen™ catalog #S6651, Life Technologies, Grand Island, NY) in a BioRad CFX96™ Real time PCR machine (BioRad, Hercules, CA) with readings taken between 10° C. to 95° C. in 0.5° C. steps. […] In contrast, 50 uM Fe2+ and 1.0 mM aKG had little effect on the stability of any of the engineered proteins. MON-HT55, MON-HT3, MON-HT4, MON-HT6, and MON-HT10 had melting temperatures in the range of 41° C. to 48° C., which is below the melting temperature of the wild-type enzyme. MON-HT1, MON-HT2, MON-HT5, MON-HT7, MON-HT8, and MON-HT9 had melting temperatures between 58° C. and 67° C., which is 8° C. to 17° C. higher than the wild-type enzyme. For MON-HT7 and MON-HT1, the difference in melting point was 11° C. in buffer without Fe2+ and aKG and 8° C. in buffer with Fe2+ and aKG. This was surprising since there are only four amino acid differences between the two enzymes.
A protein melting analysis was conducted as detailed above. The melting temperatures of MON-HT13, MON-HT15, and MON-HT17 was similar to the melting temperature of MON-HT1 with T1/2 in buffer in the range of 55-58° C., and with T1/2 in buffer plus Fe2+ and aKG in the range of 60-62° C.

[4] = enzyme activity assay at 23° C. with purified enzyme; type: biochemical; conditions: wild-type set at 100%
Description: The enzyme activity of MON-HT protein variants with haloxyfop, fenoxaprop, fluazifop, and dichlorprop as substrates was determined using the enzyme activity assay conducted at 23° C. with purified enzyme. The activity was recorded as the maximum activity as a percentage of the wild-type enzyme's activity, which was set at 100%.

[5] = as above; type: biochemical; conditions: percentage of wild-type RdpA, set at 100%
Description: The enzyme activity of MON-HT protein variants with triclopyr, fluroxypyr, MCPA, MCPB, mecoprop, as substrates was determined using the enzyme activity assay conducted at 23° C. with purified enzyme. The activity was recorded as the maximum activity as a percentage of the wild-type RdpA enzyme's activity, which was set at 100%. […] The enzymatic activity with mecoprop as a substrate was reduced for each of the MON-HT1, MON-HT13, MON-HT15, and MON-HT17 variants compared to the wild-type RdpA enzyme. An unexpected result was that enzymatic activity with MCPA as a substrate was roughly 6-fold greater for MON-HT1, and approximately 10-fold greater for MON-HT13, MON-HT15, and MON-HT17 compared to the wild-type RdpA enzyme.

B1: Wild-type RdpA: wild-type RdpA enzyme from Sphingobium herbicidovorans, SEQ ID NO:60 (protein)
chain: MHAALSPLSQRFERIAVQPLTGVLGAEITGVDLREPLDDSTWNEILDAFHTYQVIYFPGQAITNEQHIAFSRRFGPVDPVPLLKSIEGYPEVQMIRREANESGRVIGDDWHTDSTFLDAPPAAVVMRAIDVPEHGGDTGFLSMYTAWETLSPTMQATIEGLNVVHSATRVFGSLYQAQNRRFSNTSVKVMDVDAGDRETVHPLVVTHPGSGRKGLYVNQVYCQRIEGMTDAESKPLLQFLYEHATRFDFTCRVRWKKDQVLVWDNLCTMHRAVPDYAGKFRYLTRTTVGGVRPAR
modifications: Sphingobium herbicidovorans
activity of the wild-type enzyme at 46° C. and 47° C. [1]: completely inactive
inactivation of the wild-type enzyme at 42° C. and 41° C. [1]: 90 % inactive
Vmax Quizalofop ([2]; 23° C., purified His-tagged protein, standard error in parenthetical): 1.38 (−0.06) umol herbicide product mg enzyme-1 min-1
Km ([2]; 23° C., purified His-tagged protein, standard error in parenthetical, read-out: Km Quizalofop): 270 µM
Vmax 2,4-D ([2]; Table 10 series, unit as defined): 0.25 (0.01) umol herbicide product mg enzyme-1 min-1
Km ([2]; Table 10 series, unit as defined, read-out: Km 2,4-D): 130 µM
Vmax Quizalofop ([2]; Table 10 series, 23° C., unit as defined): 2.76 (0.11) umol herbicide product mg enzyme-1 min-1
Km ([2]; Table 10 series, 23° C., unit as defined, read-out: Km Quizalofop): 90 µM
Vmax 2,4-D ([2]; standard error in parenthetical, NDB = activity not robust enough for kinetic characterization): 0.10 (−0.01) umol herbicide product mg enzyme-1 min-1
Km ([2]; standard error in parenthetical, NDB = activity not robust enough for kinetic characterization, read-out: Km 2,4-D): 30 µM
Melting temp, Buffer ([3]; Table 11 series): 43 °C
Melting temp, Buffer plus Fe2+ and aKG ([3]; Table 11 series): 53 °C
T1/2, temperature where 50% of the protein was unfolded, Buffer plus Fe2+ and aKG ([3]; buffer): 50 °C
T1/2, temperature where 50% of the protein was unfolded, Buffer ([3]; buffer, pH 7.5): 42 °C
maximum activity as a percentage of the wild-type enzyme's activity, Haloxyfop ([4]; purified enzyme): 100%
maximum activity as a percentage of the wild-type enzyme's activity, Dichlorprop [4]: 100%
maximum activity as a percentage of the wild-type enzyme's activity, Fenoxaprop [4]: 100%
maximum activity as a percentage of the wild-type enzyme's activity, Fluazifop [4]: 100%
MCPA Km [5]: 100%
MCPA Vmax [5]: 100%
Mecoprop Km [5]: 100%
Mecoprop Vmax [5]: 100%
